Data taken from publication PMC4608766, “The Roles of Arabidopsis CDF2 in Transcriptional and Posttranscriptional Regulation of Primary MicroRNAs” (PLoS Genetics, 2015).

B1: MBP-DCL1-RBD (domain or fragment, Arabidopsis, UniProt Q9SP32 1733-1909, looked up)
chain: HPVRELQERCQQQAEGLEYKASRSGNTATVEVFIDGVQVGVAQNPQKKMAQKLAARNALAALKEKEIAESKEKHINNGNAGEDQGENENGNKKNGHQPFTRQTLNDICLRKNWPMPSYRCVKEGGPAHAKRFTFGVRVNTSDRGWTDECIGEPMPSVKKAKDSAAVLLLELLNKTFS
notes: Dicer-like 1 (DCL1), Arabidopsis, the two C-terminal dsRBDs (DCL1-RBD, defined as aa 1733-1910); The limits are those printed where the name DCL1-RBD is defined; the methods of the pull-down give none; source: E. coli BL21 (DE3), purified (New England Biolabs protocol)
B2: GST-DCL1-RBD (domain or fragment, Arabidopsis, UniProt Q9SP32 1733-1909, looked up)
chain: B1 chain
notes: Dicer-like 1 (DCL1), Arabidopsis, the two C-terminal dsRBDs (DCL1-RBD, defined as aa 1733-1910); The limits are those printed where the name DCL1-RBD is defined; the methods of the pull-down give none

Assays:
GST-CDF2 = target: T1, GST-CDF2 (Arabidopsis, UniProt Q93ZL5 1-457); experiment: pull-down; GST pull-down: GST-CDF2 (or GST) on glutathione beads, MBP-DCL1-RBD added; 40 mM HEPES-KOH pH 7.5, 10 mM KCl, 3 mM MgCl2, 0.4 M sucrose, 1 mM EDTA, 1 mM DTT, 0.2% Triton X-100; 4 C, 1 h; immunoblot; conditions: both partners purified
T1 construct: cycling DOF factor 2 (CDF2), Arabidopsis
T1 sequence (looked up): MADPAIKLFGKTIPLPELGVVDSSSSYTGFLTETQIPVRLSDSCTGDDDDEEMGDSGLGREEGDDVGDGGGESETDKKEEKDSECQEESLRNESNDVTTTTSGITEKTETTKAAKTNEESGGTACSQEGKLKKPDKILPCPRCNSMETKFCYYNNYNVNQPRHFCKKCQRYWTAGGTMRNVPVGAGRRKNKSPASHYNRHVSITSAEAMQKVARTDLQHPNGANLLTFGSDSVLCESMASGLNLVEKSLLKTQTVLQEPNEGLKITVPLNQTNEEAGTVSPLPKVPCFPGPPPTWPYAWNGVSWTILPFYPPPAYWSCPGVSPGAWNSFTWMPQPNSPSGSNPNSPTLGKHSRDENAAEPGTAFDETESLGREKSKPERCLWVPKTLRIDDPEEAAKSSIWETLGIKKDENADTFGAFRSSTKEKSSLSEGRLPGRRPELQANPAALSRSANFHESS

MBP-CDF2 = target: T2, MBP-CDF2 (Arabidopsis, UniProt Q93ZL5 1-457); experiment: pull-down; MBP pull-down: MBP-CDF2 (or MBP) on amylose resin, GST-DCL1-RBD added; 40 mM HEPES-KOH pH 7.5, 10 mM KCl, 3 mM MgCl2, 0.4 M sucrose, 1 mM EDTA, 1 mM DTT, 0.2% Triton X-100; 4 C, 1 h; immunoblot; conditions: both partners purified
T2 construct: cycling DOF factor 2 (CDF2), Arabidopsis; source: E. coli BL21 (DE3), purified (New England Biolabs protocol)
T2 sequence (looked up): T1 sequence (looked up)

Binder	binding result (GST-CDF2)	binding result (MBP-CDF2)
B1	binds	–
B2	–	binds
